Laboratory results from paper PMC2935968, “Structural Basis for Assembly of Hsp90-Sgt1-CHORD Protein Complexes: Implications for Chaperoning of NLR Innate Immunity Receptors” (Molecular Cell, 2010).

T1: GST-Rar1 (wild type) (Arabidopsis thaliana, UniProt Q9SE33 1-226)
T1 construct: Rar1, Arabidopsis thaliana, wild type; Construct details are in the Supplemental Information; also called Wild-type GST-Rar1; GST-tagged Rar1
T1 sequence (looked up): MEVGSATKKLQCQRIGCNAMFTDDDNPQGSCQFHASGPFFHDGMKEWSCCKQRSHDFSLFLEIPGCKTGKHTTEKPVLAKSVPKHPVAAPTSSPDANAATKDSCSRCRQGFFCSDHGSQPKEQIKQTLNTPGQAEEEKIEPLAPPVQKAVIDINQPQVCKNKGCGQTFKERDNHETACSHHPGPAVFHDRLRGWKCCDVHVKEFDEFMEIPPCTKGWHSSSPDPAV

B1: Rar1 (wild type, not GST-tagged) (natural protein, Arabidopsis thaliana, UniProt Q9SE33 1-226, looked up)
chain: T1 sequence (looked up)
B2: CS domain of cress (Arabidopsis thaliana) Sgt1a (domain or fragment)
chain: AKYRHEYYQKPEEVVVTVFAKGIPKQNVNIDFGEQILSVVIEVPGEDAYYLQPRLFGKIIPDKCKYEVLSTKIEICLAKADIITWASLEHGK
notes: Sgt1a, Arabidopsis thaliana, CS domain; construct as described previously (Boter et al., 2007; Zhang et al., 2008); also called Sgt1-CS; Sgt-CS
B3: CHORDII domain of cress (Arabidopsis thaliana) Rar1 (domain or fragment)
chain: AVIDINQPQVCKNKGCGQTFKERDNHETACSHHPGPAVFHDRLRGWKCCDVHVKEFDEFMEIPPCTKGWHSSS
notes: Rar1, Arabidopsis thaliana, CHORDII domain; also called Rar1-CHORDII; isolated CHORDII

Tests used:
Hsp90 = Hsp90 ( (Arabidopsis, H. vulgare or …, UniProt Q7XJ80 1-700)); experiment: cell-based or functional assay
Sequence of Hsp90 ( (Q7XJ80 entry or part of it): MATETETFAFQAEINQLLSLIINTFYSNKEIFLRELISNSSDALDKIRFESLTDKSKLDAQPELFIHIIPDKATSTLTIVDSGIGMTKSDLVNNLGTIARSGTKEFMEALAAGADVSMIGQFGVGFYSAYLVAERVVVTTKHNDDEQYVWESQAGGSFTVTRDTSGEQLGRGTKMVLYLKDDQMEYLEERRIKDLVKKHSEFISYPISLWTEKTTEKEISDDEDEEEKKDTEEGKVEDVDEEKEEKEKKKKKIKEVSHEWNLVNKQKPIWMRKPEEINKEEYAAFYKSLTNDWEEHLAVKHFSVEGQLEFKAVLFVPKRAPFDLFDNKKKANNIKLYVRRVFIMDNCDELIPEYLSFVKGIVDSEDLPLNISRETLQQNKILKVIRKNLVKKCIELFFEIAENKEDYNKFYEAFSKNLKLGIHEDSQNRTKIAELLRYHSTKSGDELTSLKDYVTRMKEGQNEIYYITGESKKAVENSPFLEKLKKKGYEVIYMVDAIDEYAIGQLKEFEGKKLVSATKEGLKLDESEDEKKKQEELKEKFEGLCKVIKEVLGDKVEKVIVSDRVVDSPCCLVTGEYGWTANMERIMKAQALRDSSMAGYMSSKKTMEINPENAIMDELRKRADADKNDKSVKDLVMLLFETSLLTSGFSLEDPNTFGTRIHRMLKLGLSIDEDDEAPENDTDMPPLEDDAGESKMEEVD

GST-Rar1 (wild type) = biological target: T1, GST-Rar1 (wild type); experiment: pull-down; GST-Rar1 as bait, Hsp90, untagged Rar1 and Sgt1-CS present; conditions: both partners purified
[1] = biological target: B2; experiment: ITC; Rar1-CHORDII with Sgt1-CS (Figure S2C); conditions not shown; conditions: both partners purified

Binder: B1
- ATP turnover of Ta-Hsp90 with increasing concentrations of Rar1 (up to 20-fold excess) (Hsp90): 2 fold

Binder: B2
- binding result (GST-Rar1 (wild type)): binds

Binder: B3
- Kd [1]: 3.09 ± 0.15 µM
